In patent US6162627, “Methods of identifying inhibitors of sensor histidine kinases through rational drug design” (University of Medicine and Dentistry of New Jersey, dated 2000):

B1: EnvZ(C)(290-450) (enzyme)
chain: TGQEMPMEMADLNAVLGEVIAAESGYEREIETALYPGSIEVKMHPLSIKRAVANMVVNAARYGNGWIKVSSGTEPNRAWFQVEDDGPGIAPEQRKHLFQPFVRGDSARTISGTGLGLAIVQRIVDNHNGMLELGTSERGGLSIRAWLPVPVTRAQGTTKEG

Experiments:
[1] = biological target: EnvZ(C)(223-289) (Escherichia coli)
[2] = biological target: the molecule itself; experiment: gel filtration (21.6 kDa) and dynamic light scattering (26.5 kDa) against a calculated molecular weight of 17.6 kDa

| Molecule | phosphorylation activity on sub-domain A against that of H6-EnvZ(C)H1 [1] [%] | binding result [2] |
| --- | --- | --- |
| EnvZ(C)(290-450) (enzyme) | 5 | – |
| B1 | – | no binding |
